Results from publication PMC5374532, “Rational mutagenesis by engineering disulphide bonds improves Kluyveromyces lactis beta-galactosidase for high-temperature industrial applications” (Scientific Reports, 2017).

Key:
[1] = biological target: Kluyveromyces lactis β-galactosidase mutant R116C/T270C (Kluyveromyces lactis) (UniProt P00723); assay: AUC; sedimentation velocity, 0.1 mg/mL enzyme, 50 mM Tris-HCl, 150 mM NaCl, pH 7.4, 48 k rpm, c(s) distribution (SEDFIT); self-association
[2] = biological target: Kluyveromyces lactis β-galactosidase mutant R116C/T270C (Kluyveromyces lactis) (UniProt P00723); assay: AUC; sedimentation velocity, 0.2 mg/mL enzyme, 50 mM Tris-HCl, 150 mM NaCl, pH 7.4, 48 k rpm, c(s) distribution (SEDFIT); self-association, shares of monomer, dimer, trimer and tetramer
[3] = biological target: Kluyveromyces lactis β-galactosidase mutant R116C/T270C/G818C (Kluyveromyces lactis) (UniProt P00723); assay: AUC; sedimentation velocity, 0.1 mg/mL enzyme, 50 mM Tris-HCl, 150 mM NaCl, pH 7.4, 48 k rpm, c(s) distribution (SEDFIT); self-association
[4] = biological target: Kluyveromyces lactis β-galactosidase mutant R116C/T270C/G818C (Kluyveromyces lactis) (UniProt P00723); assay: AUC; sedimentation velocity, 0.2 mg/mL enzyme, 50 mM Tris-HCl, 150 mM NaCl, pH 7.4, 48 k rpm, c(s) distribution (SEDFIT); self-association, shares of monomer, dimer, trimer and tetramer

| Substance | increase in monomeric forms at 0.1 mg/mL against 0.2 mg/mL [1] [%] | percent of the protein as dimer [2] [%] | percent of the protein as monomer [2] [%] | percent of the protein as tetramer [2] [%] | percent of the protein as trimer [2] [%] | increase in monomeric forms at 0.1 mg/mL against 0.2 mg/mL [3] [%] | percent of the protein as dimer [4] [%] | percent of the protein as monomer [4] [%] | percent of the protein as tetramer [4] [%] | percent of the protein as trimer [4] [%] |
| --- | --- | --- | --- | --- | --- | --- | --- | --- | --- | --- |
| Kluyveromyces lactis β-galactosidase mutant R116C/T270C (from UniProt P00723 2-1025) (enzyme) | 0.8 | 20.9 | 21.9 | 49.3 | 7.9 |  |  |  |  |  |
| Kluyveromyces lactis β-galactosidase mutant R116C/T270C/G818C (from UniProt P00723 2-1025) (enzyme) |  |  |  |  |  | 2.1 | 57.2 | 7.3 | 23 | 12.6 |
